# Measurements published in PMC11260014 (JTO Clinical and Research Reports, 2024).
# Legend:
# ALK-positive NSCLC = details: monotherapy; phase 2 study, subgroups with prior ALK TKI treatment; cited from earlier work
# [1] = Pharmacokinetics from blood samples; type: in vivo, human; details: serum, in combination with lorlatinib or crizotinib
Compound,Median PFS (ALK-positive NSCLC),Ctrough level at steady state ([1]; at cycle 2),Cmax on cycle 1 day 1 versus cycle 2 day 1 [1]
"C[C@H]1Oc2cc(cnc2N)-c2c(nn(C)c2C#N)CN(C)C(=O)c2ccc(F)cc21 [Lorlatinib, lorlatinib]",6.9–7.3 mo,,
avelumab,,above 10 μg/mL,similar
